Experimental findings from article PMC9388160, “A multidomain connector links the outer membrane and cell wall in phylogenetically deep-branching bacteria” (Proceedings of the National Academy of Sciences of the …, 2022) are described below.

One series has as its target DR_0644 (uncharacterized protein, UniProt Q9RWM2) (D. radiodurans). Nature of the series: cryo-EM structure; single-particle cryo-EM of SlpA purified from D. radiodurans, in 20 mM Hepes/NaOH pH 7.5, 150 mM NaCl, 0.02% DDM; 4.45 mg/mL; C3 symmetry; global resolution 3.25 Å.
Series [1] deals with the molecule itself. The description is as above.

For the molecule “DR_0644 (uncharacterized protein, UniProt Q9RWM2) (natural protein)”, the stoichiometry N in the series with DR_0644 worked out at 3.

B1: SlpA (Deinococcus radiodurans outer membrane protein, UniProtKB Q9RRB6) (natural protein, D. radiodurans, UniProt Q9RRB6 23-1167, looked up)
chain: APVSAPQVPALTDVPAGHWAKDAIDRLVSRGVILGYPDGTFRGTQNLTRYEAAIIIARLLDQMRDGETPAGMTAEDMTALQNAIQELAADLAALGVRVSDLEANAVSKDDFARLEARIEEVAAAGGEQGATEALQGQIDDLTARVDEYDALRADVDDNASSIAALNDLTVLLNQDILDLQDRVSAVEAAQADFVQRSDFDALGGRVTTVETRVETVNNSLTGRIAALERNAFSVKPSLTIGYSVSRTSRNFDVDRLFPLNADGTVANNAFTSGGIDTDTGAQRRDFGDFGNASDPVVAGAAGLYGFADGVSYTVYFTDGSTATFDGLNPADYKVPTGKVIDTTKGRNGFGFNNLARYKEGSTDIGISLGFDTSGQFSQVTSGTGGSLFSTAGRLQVNQIDLNFGLVTGLPSDAYVDTNGNGKKDDGEATGRGTYLGSGGTAAILRDPAGNVYRPVFFRFKNATTQFSVGNNPVIVTLGQQQKFYFSDYVFDNNYDGRGDGFTVTVDGSNVPVIGAWKPQIKGVYGSRSGLDGTAEAGYGVYYRGVRAQITPVGTLTAGIHYAQEGRDMFGAAQNTTSTPSDVTTYGADLHGKAFGVELHSEYATSRVRPNTANAAVQTSNAFYARVATRKDNLAFDLNTPAAKFGNDTFGVSLYDLNYRKIDAGYNNVAGISEYGYGSYSRTSAQNIAYNPDTGVTAPFANLDRQAYTDANNDGTSDRNADGTVVATNTKIGQMGFGVKAAANLGPVAIGGYYDTSTGANGDNANRMTEAGGSAKVAYSIFSLRGTYNTLDSNRPQIYRDAAGTQIIGDAKVRRYAVQADVTPGLGLFVGAYYRDVNVNGVRSTTDRGLLGRGYLASSFEPGVGNNAYRTGLRCADNNFGTGTRDIDGVGGVLNPAVNLDQSRTATCFTSYGVEAGHAGDNANALVKDLFFRVGYSRVYVPTTATATTGDFSGSVTYGDARYDRKVGVANVRLAGSFSTTNTQLDSRPAGTRGAVGLIVRTDPLENVPFRPQFNGQVGYYTADNRVAAGNYNANATKYGAGVVLNDFLLPQTKIGVRYDGYMAQNRQYTPFDGDGTQGYFSDANNNRRTNLNGVYVEGAYQDLIFSYGTYTLSQKDLNGVEYGSGINNGQPARGQTFKISYKVNF
notes: SlpA, D. radiodurans, UniProtKB Q9RRB6; wild-type protein purified from the bacterium; The map is well resolved from residue 215 onwards; Native, untagged protein in DDM micelles; it models the periplasmic segment from residue 20; also called SlpA protein complex; SlpA trimer; source: purified from D. radiodurans (ATCC BAA816): lysozyme treatment, DDM extraction, HiTrap-Q, Superose 6 Increase
On to B1, for which the “stoichiometry N” value in series [1] is 3.
